Reference: patent publication JP2024051908A

Columns and labels:
[1] = molecular target: BA.2スパイクRBD (SARS-CoV-2 Omicron BA.2)
[2] = molecular target: BA.5スパイクRBD (SARS-CoV-2 Omicron BA.5)

B1: MO2 (antibody, V domains shown)
VH: EVQLVESGGGLVKPGGSLSLSCVASGFTFSDYRMSWIRQAPGKGLEWVSYISSSSGYKDYADSVKGRFTISRDNAKNSLSLQMNSLRVEDTAVYYCARDVGVVTATPGYWGQGVPVSVSS
VL: DIVMTQSPATLSVSPGERATLSCRASQSVGSNLAWYQQKPGQAPRLLIYDTSTRATGVPARFSGSGSGTDFTLTISSLQSEDFAVYLCHQYDQWPPAFGPGTRVDIK
Question: With B1 as the binder, how does the Kd [1] read?
Answer: The Kd was 2 nM.

B2: MO1 (antibody, V domains shown)
VH: EVQLVESGGGMVQPGRSLRLSCAASGFTFDDYAMHWVRQIPGKGLEWVSGISWNSGDIGYADSVKGRFTISRDNAKNSLHLQMNSLRAEDTALYYCAKDKTYDSPGYFLNSFDYWGQGTLVTVSS
VL: DIQMTQSPSSLSASVGDRVTITCRASQGISSYLVWYQQKPGKAPKFLIYAASTLQSGVPSRFSGSGSGTDFTLTISSLQPEDFATYYCQQLYSYPITFGQGTRLEIK
Question: How did the Kd [1] turn out when B2 was run?
Answer: Its Kd is 3.3 nM.

Question: What about the Kd [2] of the same binder?
Answer: Its Kd is 11 nM.
